Experimental findings from PMC11922929, “Functional recoding of Chlamydomonas reinhardtii thioredoxin type-h into photosynthetic type-f by switching selectivity determinants” (Frontiers in Plant Science, 2025) are described below.

Assay [1] deals with T1, CrFBPase (Chlamydomonas reinhardtii, UniProt A8IKQ0).
T1 construct: gene CHLRE_12g510650v5; recombinant, N-terminal poly-histidine tag, pET plasmid, E. coli BL21(DE3), Ni-NTA purified
T1 sequence (A8IKQ0 29-415): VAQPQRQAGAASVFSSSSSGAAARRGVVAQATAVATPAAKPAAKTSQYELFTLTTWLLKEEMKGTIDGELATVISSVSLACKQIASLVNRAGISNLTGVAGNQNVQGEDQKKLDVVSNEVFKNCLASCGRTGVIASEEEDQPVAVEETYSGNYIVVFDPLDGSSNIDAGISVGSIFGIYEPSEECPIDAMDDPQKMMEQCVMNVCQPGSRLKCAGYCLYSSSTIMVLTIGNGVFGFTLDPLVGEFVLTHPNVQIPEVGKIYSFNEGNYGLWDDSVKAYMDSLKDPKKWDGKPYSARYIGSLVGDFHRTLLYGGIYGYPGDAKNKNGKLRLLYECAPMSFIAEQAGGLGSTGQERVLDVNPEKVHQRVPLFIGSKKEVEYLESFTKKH
Nature of the assay: coupled spectrophotometric assay of FBP hydrolysis (NADP+ reduction at […] nm). Type of assay: biochemical. As to conditions: 0.6 mM FBP, 10 mM MgCl2, 30 mM Tris pH 7.9, 20 °C; FBPase pre-incubated with 1 mM DTT, with or without 50 µM thioredoxin.

In assay [2] the target is Chlamydomonas reinhardtii fructose-1,6-bisphosphatase (CrFBPase) (Chlamydomonas reinhardtii).

Consider `O=P(O)(O)OC[C@H]1OC(O)(COP(=O)(O)O)[C@@H](O)[C@@H]1O` (stereo partly shown) [FBP], for which the “coupled spectrophotometric assay of FBP hydrolysis (NADP+ reduction at 340 nm)” value in assay [1] is recorded as “The activity of FBPase was determined in the direction of FBP hydrolysis”.

“Chlamydomonas reinhardtii thioredoxin f2 (CrTRXf2) (enzyme)”: in assay [2], the FBPase activity (coupled spectrophotometric assay, NADP+ reduction at 340 nm, initial velocity) after 5 min pre-incubation with 1 mM DTT and 50 µM TRXf2, 20°C, n=4 was 106 ΔAbs/min; the fold increase of FBPase activity after pre-incubation with 1 mM DTT and 50 µM TRXf2 worked out at 6 fold.

Turning to “TRXχ1 (chimera 1; TRXh1-K49,K69,K70,K78,K99) (from UniProt P80028 1-113) (enzyme)”, in assay [2], the FBPase activity (coupled spectrophotometric assay, NADP+ reduction at 340 nm, initial velocity) after 5 min pre-incubation with 1 mM DTT and 50 µM TRXχ1, 20°C, n=4 was 172 ΔAbs/min; the fold increase of FBPase activity after pre-incubation with 1 mM DTT and 50 µM TRXχ1 turned out to be 9.8 fold.

B1: Chlamydomonas reinhardtii thioredoxin h1 (CrTRXh1) (enzyme)
chain: MGGSVIVIDSKAAWDAQLAKGKEEHKPIVVDFTATWCGPCKMIAPLFETLSNDYAGKVIFLKVDVDAVAAVAEAAGITAMPTFHVYKDGVKADDLVGASQDKLKALVAKHAAA
As to B1, in assay [2], the FBPase activity (coupled spectrophotometric assay, NADP+ reduction at 340 nm, initial velocity) after 5 min pre-incubation with 1 mM DTT and 50 µM TRXh1, 20°C, n=4 is 59 ΔAbs/min; the fold increase of FBPase activity after pre-incubation with 1 mM DTT and 50 µM TRXh1 came out at 3.4 fold.
